Test results from US20140162285A1, “Methods of Modulating Vesicular Trafficking” (The General Hospital Corporation, priority 2009, published 2014).
Entries after “also recorded” stand apart in the source; their conditions may differ. Ends that are not written are not given here. * marks the point of attachment. FITC = O=C1OC2(c3ccc(O)cc3Oc3cc(O)ccc32)c2ccc(NC(=S)*)cc21; Biotin = O=C1N[C@H]2[C@H](CS[C@H]2CCCCC(=O)*)N1; βAla = NCCC(=O)O

Experiments:
[1] = target: T1, PB-domain of ARNO (Homo sapiens, UniProt Q99418); assay: a2N-derived peptide pull-down with GST-PB domain; format: binding
T1 construct: v) 379-400aa, polybasic (PB) domain; made in house; host or cells: E. coli BL21(DE3)
Procedure: (§1) FIGS. 5A-C are a set of three images of Western blots showing the identification of interaction motif of a2N that is involved in specific binding with the Sec7 domain of ARNO. 5A, The catalytic Sec7 domain of ARNO interacts with two a2N-derived peptides, a2N-01 and a2N-03, in pull-down experiments. The peptide pull-down assay was performed with six a2N-derived interaction peptides immobilized on streptavidin-beads and incubated with purified recombinant GST-only or GST-Sec7 domain. Interacting complexes were eluted and analyzed by Western blotting using monoclonal anti-GST antibodies as described below. The loading controls for GST-only (lane 1) or GST-Sec7 (lane 2) are shown. […] The peptide pull-down assay was performed with peptides a2N-01 and a2N-03 immobilized on streptavidin-beads and incubated with purified recombinant GST-PH domain (5B) or GST-PB domain (5C). Interacting complexes were eluted and analyzed by Western blotting using monoclonal anti-GST antibodies. […]
(§2) These a2N-derived peptides were immobilized by an N-terminal biotin-tag, which ensured the same efficiency and equivalent binding to streptavidin-agarose beads. […] After washing beads four times in ice-cold binding buffer, the interacting complexes were eluted by boiling in SDS-PAGE sample buffer for 10 min at 95° C., resolved by SDS-PAGE and analyzed by Western blotting using monoclonal anti-GST antibody. […]

[2] = target: T2, GST-ARNO(wt) (Homo sapiens, UniProt Q99418); assay: a2N-derived peptide pull-down assay with GST-ARNO(wt); format: binding; parameters: key to interaction with ARNO (asterisk mark in Table 1): The interacting peptides are indicated in bold with an asterisk (*)
T2 construct: i) 1-400aa, full length ARNO(wt); made in house; host or cells: E. coli BL21(DE3)
T2 sequence (Q99418 1-400): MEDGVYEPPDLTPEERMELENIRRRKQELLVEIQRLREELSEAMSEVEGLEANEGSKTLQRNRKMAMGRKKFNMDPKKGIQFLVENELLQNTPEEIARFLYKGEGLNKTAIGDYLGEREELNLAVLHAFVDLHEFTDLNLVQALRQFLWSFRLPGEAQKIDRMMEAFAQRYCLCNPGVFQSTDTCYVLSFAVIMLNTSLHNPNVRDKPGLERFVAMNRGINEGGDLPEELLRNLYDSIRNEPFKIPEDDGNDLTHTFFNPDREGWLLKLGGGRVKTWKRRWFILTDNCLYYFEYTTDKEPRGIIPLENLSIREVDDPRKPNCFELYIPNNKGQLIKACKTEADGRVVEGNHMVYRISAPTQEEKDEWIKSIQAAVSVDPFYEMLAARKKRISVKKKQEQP
Procedure: FIG. 2A is an image of a Western blot showing the results of an a2N-derived peptide pull-down assay. The indicated a2N-derived peptides were immobilized on streptavidin-beads and incubated with purified recombinant GST-ARNO(wt). Interacting complexes were eluted and analyzed by Western blotting using monoclonal anti-GST antibodies.
FIG. 2B is an image of a Western blot showing the results of a pull-down assay with selected a2N-derived interacting peptides incubated with either GST (negative control) or GST-ARNO(wt). The first two lanes show the patterns obtained when either GST-only (lane 1) or GST-ARNO(wt) (lane 2) were loaded onto the gel.
Peptides were synthesized, purified by HPLC and analyzed by mass spectrometry in the MGH Peptide/Protein Core Facility. All a2N-derived peptides were synthesized with a biotin-tag on the N-terminus for immobilization on streptavidin-agarose beads and with an additional C-terminal cysteine residue for immobilization on beads using sulfhydryl-specific crosslinkers. A peptide corresponding to the PB-domain of ARNO was synthesized containing either a non-phosphorylated or a phosphorylated Ser392 residue. Peptide stock solutions were prepared in DMSO at 5 mM concentration and stored at −20° C. […]

[3] = target: T3, Sec7-domain of ARNO (Homo sapiens, UniProt Q99418); assay: a2N-derived peptide pull-down with GST-Sec7 domain; format: binding; settings: GST-Sec7-6His
T3 construct: iii) 61-252aa, Sec7 domain; GST (N, cleaved yes); made in house; host or cells: E. coli BL21(DE3)
T3 sequence (Q99418 61-252): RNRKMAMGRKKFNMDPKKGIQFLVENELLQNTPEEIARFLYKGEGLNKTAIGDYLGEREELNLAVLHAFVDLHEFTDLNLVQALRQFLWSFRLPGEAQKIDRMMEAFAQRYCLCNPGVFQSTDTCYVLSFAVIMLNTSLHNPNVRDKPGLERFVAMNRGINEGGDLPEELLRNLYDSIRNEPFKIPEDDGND
Procedure: as §1
These a2N-derived peptides were immobilized by an N-terminal biotin-tag, which ensured the same efficiency and equivalent binding to streptavidin-agarose beads. […] After washing beads four times in ice-cold binding buffer, the interacting complexes were eluted by boiling in SDS-PAGE sample buffer for 10 min at 95° C., resolved by SDS-PAGE and analyzed by Western blotting using monoclonal anti-GST antibody.

[4] = target: T4, PH-domain of ARNO (Homo sapiens, UniProt Q99418); assay: a2N-derived peptide pull-down with GST-PH domain; format: binding
T4 construct: iv) 253-378aa, plekstrin-homology (PH) domain; made in house; host or cells: E. coli BL21(DE3)
T4 sequence (Q99418 253-378): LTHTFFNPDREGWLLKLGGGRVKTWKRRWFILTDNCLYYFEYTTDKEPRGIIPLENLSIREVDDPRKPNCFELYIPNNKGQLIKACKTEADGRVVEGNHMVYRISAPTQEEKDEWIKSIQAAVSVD
Procedure: as §1, §2

[5] = target: T5, recombinant ARNO (human, UniProt Q99418 1-400, limits assumed); assay: cell-based or functional assay
T5 sequence (looked up): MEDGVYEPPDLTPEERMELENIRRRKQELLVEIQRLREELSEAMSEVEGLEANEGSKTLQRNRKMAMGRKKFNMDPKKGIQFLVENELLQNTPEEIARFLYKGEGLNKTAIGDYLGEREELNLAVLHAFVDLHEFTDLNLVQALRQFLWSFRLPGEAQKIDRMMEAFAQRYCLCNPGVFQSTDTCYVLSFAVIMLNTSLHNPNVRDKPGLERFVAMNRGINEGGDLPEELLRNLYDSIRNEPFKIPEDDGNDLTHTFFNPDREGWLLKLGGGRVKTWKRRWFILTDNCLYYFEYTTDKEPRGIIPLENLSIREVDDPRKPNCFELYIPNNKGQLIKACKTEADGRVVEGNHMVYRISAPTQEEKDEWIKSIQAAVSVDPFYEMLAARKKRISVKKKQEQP

[6] = target: Sec7-6His recombinant protein (human) (UniProt Q99418); assay: SPR (BIAcore T100), biotinylated a2N-01 captured on neutravidin, Sec7-6His as analyte, 1:1 fit
[7] = target: Sec7-6His recombinant protein (human) (UniProt Q99418); assay: calculated from the SPR KD (deltaG = RT ln KD)
[8] = target: T6, GST-only (UniProt P08515 1-218 = GST); assay: peptide pull-down: biotinylated peptide on streptavidin beads, GST-only in solution, Western blot with anti-GST antibody
T6 construct: Control bait/prey in pull-down assays; also called GST (negative control)
T6 sequence (P08515 whole entry): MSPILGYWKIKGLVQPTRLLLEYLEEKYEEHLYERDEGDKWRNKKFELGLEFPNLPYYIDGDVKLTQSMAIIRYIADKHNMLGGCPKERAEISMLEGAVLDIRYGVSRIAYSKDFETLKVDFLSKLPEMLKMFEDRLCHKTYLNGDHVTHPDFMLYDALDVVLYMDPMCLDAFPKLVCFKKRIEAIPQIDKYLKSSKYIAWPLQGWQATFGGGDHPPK

Bio-VQFRDLNQNVSSFQR-Cys (VQFRDLNQNVSSFQRC) [a2N-03, AA 35-49 of a2N]
interaction with PB-domain of ARNO [1]: interacts equally well | interaction of a2N-derived peptide with GST-ARNO(wt) in pull-down ([2]; Western blot anti-GST, GST-only as control): specific interaction; also recorded: capable of interaction with ARNO | interaction with ARNO (asterisk mark in Table 1) ([2]; biotin-tagged peptides on streptavidin beads): Bio-VQFRDLNQNVSSFQR-Cys * | interaction with Sec7-domain of ARNO [3]: interacts | interaction with PH-domain of ARNO [4]: interacts equally well

{FITC-βAla}-MGSLFRSESMCLAQLFLYGRKKRRQRRR [FITC-a2N-01-TAT]
IC50 of inhibition of ARNO's GEF activity (radiolabel GDP/GTP-exchange assay, 5% PIP2 vesicles) [5]: ~0.7 µM

B1: a2N-01 (peptide)
peptide: Biotin-MGSLFRSESMCLAQLFLC
modifications: cysteine pairing not given here
notes: Synthetic peptide from the mouse V-ATPase a2-subunit N-terminal tail; Bio- at N-terminus, extra Cys at C-terminus; also called a2N1-17; biotinylated a2N-01 peptide
Kd [6]: 0.344 µM | koff [6]: 0.00086 s⁻¹ | kon [6]: 2500 M⁻¹ s⁻¹ | free energy of binding [7]: -36.9 kJ/mol | binding result [8]: no binding
